Data published in patent publication US20190135908A1 (Novartis, published 2019).

T1: GDF15 mutant Q247R (wrist region), albumin fusion (human, UniProt Q99988 195-308)
T1 construct: not shown: albumin fusion partner
T1 chain: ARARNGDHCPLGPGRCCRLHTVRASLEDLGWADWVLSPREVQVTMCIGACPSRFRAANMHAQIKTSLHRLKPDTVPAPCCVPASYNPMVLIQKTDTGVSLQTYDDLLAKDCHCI

T2: GDF15 mutant M253R (wrist region), albumin fusion (human, UniProt Q99988 195-308)
T2 construct: not shown: albumin fusion partner
T2 chain: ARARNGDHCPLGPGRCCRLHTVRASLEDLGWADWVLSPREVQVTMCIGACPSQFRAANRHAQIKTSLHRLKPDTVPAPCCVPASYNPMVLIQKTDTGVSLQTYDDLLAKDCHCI

T3: Cyno His-GDF15: HIS-tagged cyno GDF15 (cynomolgus, UniProt G7PWZ3 197-308, limits assumed)
T3 construct: not shown: His tag
T3 sequence (looked up): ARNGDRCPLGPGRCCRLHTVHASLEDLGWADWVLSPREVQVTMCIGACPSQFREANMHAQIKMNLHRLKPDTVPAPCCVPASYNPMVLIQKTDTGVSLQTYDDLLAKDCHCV

T4: Mouse His-GDF15: HIS-tagged mouse GDF15 (mouse, UniProt Q9Z0J7 189-303)
T4 construct: not shown: His tag
T4 sequence (looked up): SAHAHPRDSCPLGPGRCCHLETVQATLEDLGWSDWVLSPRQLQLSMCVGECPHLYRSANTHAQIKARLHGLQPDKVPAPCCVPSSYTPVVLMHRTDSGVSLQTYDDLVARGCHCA

T5: Rat GDF15 HIS: HIS-tagged rat GDF15 (rat, UniProt Q9Z0J6 189-303, limits assumed)
T5 construct: also called Rat His-GDF15; not shown: His tag
T5 sequence (looked up): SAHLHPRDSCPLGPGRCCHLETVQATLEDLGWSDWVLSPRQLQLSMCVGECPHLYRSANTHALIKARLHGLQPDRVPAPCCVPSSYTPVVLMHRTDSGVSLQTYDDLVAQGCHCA

T6: GDF15 mutant L294R (knuckle region), albumin fusion (human, UniProt Q99988 195-308)
T6 construct: not shown: albumin fusion partner
T6 chain: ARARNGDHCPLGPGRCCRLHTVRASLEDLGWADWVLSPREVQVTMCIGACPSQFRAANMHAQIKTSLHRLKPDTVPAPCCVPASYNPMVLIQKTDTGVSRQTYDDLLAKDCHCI

T7: GDF15 mutant I285R (knuckle region), albumin fusion (human, UniProt Q99988 195-308)
T7 construct: not shown: albumin fusion partner
T7 chain: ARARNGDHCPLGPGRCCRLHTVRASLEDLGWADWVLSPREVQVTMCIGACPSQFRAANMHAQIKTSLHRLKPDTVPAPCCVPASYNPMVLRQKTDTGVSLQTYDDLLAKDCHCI

T8: GDF15 mutant W228R (wrist region), albumin fusion (human, UniProt Q99988 195-308)
T8 construct: not shown: albumin fusion partner
T8 chain: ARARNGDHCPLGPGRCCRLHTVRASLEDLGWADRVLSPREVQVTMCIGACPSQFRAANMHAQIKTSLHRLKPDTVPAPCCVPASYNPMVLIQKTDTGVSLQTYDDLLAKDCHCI

T9: GDF15 mutant D289R (finger tip region), albumin fusion (human, UniProt Q99988 195-308)
T9 construct: not shown: albumin fusion partner
T9 chain: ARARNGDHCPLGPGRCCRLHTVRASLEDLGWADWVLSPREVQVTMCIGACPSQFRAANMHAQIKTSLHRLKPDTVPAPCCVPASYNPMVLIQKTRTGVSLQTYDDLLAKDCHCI

T10: GDF15 mutant S278R (back-of-hand), albumin fusion (human, UniProt Q99988 195-308)
T10 construct: not shown: albumin fusion partner
T10 chain: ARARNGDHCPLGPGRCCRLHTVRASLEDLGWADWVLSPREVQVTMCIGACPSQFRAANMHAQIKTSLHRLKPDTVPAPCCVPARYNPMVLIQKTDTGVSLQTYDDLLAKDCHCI

T11: Human GDF15 native: naturally produced human GDF15 purchased from Peprotech (human, UniProt Q99988 195-308)
T11 construct: Bought protein
T11 sequence: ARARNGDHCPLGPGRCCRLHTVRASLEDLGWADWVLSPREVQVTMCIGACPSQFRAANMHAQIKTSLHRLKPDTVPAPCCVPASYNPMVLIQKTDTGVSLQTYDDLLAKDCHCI

T12: Human His-GDF15: HIS-tagged human GDF15 (human, UniProt Q99988 195-308)
T12 construct: not shown: His tag
T12 sequence: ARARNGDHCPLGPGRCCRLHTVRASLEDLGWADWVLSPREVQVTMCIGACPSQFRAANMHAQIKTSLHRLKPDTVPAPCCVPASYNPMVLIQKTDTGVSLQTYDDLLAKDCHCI

T13: GDF15 mutant S231R (knuckle region), albumin fusion (human, UniProt Q99988 195-308)
T13 construct: not shown: albumin fusion partner
T13 chain: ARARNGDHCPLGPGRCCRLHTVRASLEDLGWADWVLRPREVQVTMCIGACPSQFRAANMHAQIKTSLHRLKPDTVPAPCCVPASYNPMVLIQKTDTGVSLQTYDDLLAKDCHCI


Legend:
[1] = target: T1, GDF15 mutant Q247R (wrist region), …; assay: direct ELISA on coated albumin-fusion GDF15 variant
Protocol: (§1) Antibody epitope was determined by a direct ELISA method with GDF15 mutants. Albumin fusion GDF15 mutants were coated in wells of a 96-well EIA plate. After blocking, serially diluted anti-hGDF15 human antibodies were added to the GDF15-coated wells, followed by incubation at an ambient temperature for a few hours. Antibody binding was detected using an anti-human IgG antibody conjugated with horseradish peroxidase (HRP) and HRP substrate.

[2] = target: T2, GDF15 mutant M253R (wrist region), …; assay: as above
Protocol: as §1

[3] = target: T3, Cyno His-GDF15: HIS-tagged cyno GDF15; assay: Biacore SPR, IgG captured via anti-human Fc, GDF15 in flow
Protocol: (§2) Biacore assay is based on surface plasmon resonance (SPR) and were used to determine the binding affinity of antibodies to GDF15.
(§3) Anti-human Fc capture antibody was immobilized at 0.5 μg/ml on CMS chip in all four flow cells to achieve 8000 to 12,000 resonance units (RU) on the surface. Anti-hGDF15 antibodies were captured at flow rate […], at 0.25 to 0.5 μg/ml on the chip to get about 30 RU in flow cells 2, 3 and 4. GDF15 ligand was flowed at […] over captured antibodies and reference flow cell 1 for 600 and 1200 seconds contact time. Eight doses serially diluted 1 to 2, ranging from 20 to 0.156 nM, were tested. All cycles were repeated twice, regenerated between cycles with 3M MgCl₂ at flow […], 20 seconds contact time. Data were normalized by subtracting reference flow cell results. Data were fit with 1:1 Kinetics model with RI (bulk refractive index) set constant at 0.

[4] = target: T4, Mouse His-GDF15: HIS-tagged mouse GDF15; assay: as above
Protocol: as §2, §3

[5] = target: T5, Rat GDF15 HIS: HIS-tagged rat GDF15; assay: as above
Protocol: as §2, §3

[6] = target: T6, GDF15 mutant L294R (knuckle region), …; assay: direct ELISA on coated albumin-fusion GDF15 mutant
Protocol: as §1

[7] = target: T7, GDF15 mutant I285R (knuckle region), …; assay: direct ELISA on coated albumin-fusion GDF15 mutant
Protocol: as §1

[8] = target: T8, GDF15 mutant W228R (wrist region), …; assay: direct ELISA on coated albumin-fusion GDF15 variant
Protocol: as §1

[9] = target: T9, GDF15 mutant D289R (finger tip region), …; assay: as above
Protocol: as §1

[10] = target: T10, GDF15 mutant S278R (back-of-hand), …; assay: as above
Protocol: as §1

[11] = target: T11, Human GDF15 native: naturally produced …; assay: Biacore SPR (rounded from Table 2, human GDF15 native)
Protocol: as §3

[12] = target: T12, Human His-GDF15: HIS-tagged human GDF15; assay: Biacore SPR, IgG captured via anti-human Fc, GDF15 in flow
Protocol: as §2, §3

[13] = target: T11, Human GDF15 native: naturally produced …; assay: as above
Protocol: as §2, §3

[14] = target: T13, GDF15 mutant S231R (knuckle region), …; assay: direct ELISA: albumin fusion GDF15 mutant coated on the plate, serially diluted antibody, anti-human IgG-HRP detection
Protocol: as §1

[15] = target: T13, GDF15 mutant S231R (knuckle region), …; assay: direct ELISA on coated albumin-fusion GDF15 mutant
Protocol: as §1

[16] = target: T6, GDF15 mutant L294R (knuckle region), …; assay: direct ELISA: albumin fusion GDF15 mutant coated on the plate, serially diluted antibody, anti-human IgG-HRP detection
Protocol: as §1

Binder	binding result [1]	binding result [2]	Kd [3] [nM]	koff [3] [s⁻¹]	kon [3] [M⁻¹ s⁻¹]	Kd [4] [nM]	koff [4] [s⁻¹]	kon [4] [M⁻¹ s⁻¹]	Kd [5] [nM]	koff [5] [s⁻¹]	kon [5] [M⁻¹ s⁻¹]	binding result [7]	binding result [8]	binding result [9]	binding result [10]	Kd [11] [nM]	Kd [12] [nM]	koff [12] [s⁻¹]	kon [12] [M⁻¹ s⁻¹]	Kd [13] [nM]	further results
ABGDF15-D (antibody, human IgG1, lambda, V domains shown, captured through anti-human Fc in the Biacore assay) VH: EVQLVQSGAEVKKPGESLKISCKGSGYSFTSYWIGWVRQMPGKGLEWMGVIDPDGSYTIYSPSFQGQVTISADKSISTAYLQWSSLKASDTAMYYCARYGRYGTYFDYWGQGTLVTVSS VL: QSVLTQPPSVSGAPGQRVTISCSGSSSNIGVLYVNWYQQLPGTAPKLLIYSNDNRPSGVPDRFSGSKSGTSASLAITGLQAEDEADYYCQSWDSSSNYVFGGGTKLTVLG	binds	binds	0.0141	0.000236	1.67e+07	0.0457	0.000509	1.11e+07	0.0281	0.000456	1.62e+07										
ABGDF15-E (antibody, human IgG1, lambda, V domains shown, captured through anti-human Fc in the Biacore assay) VH: EVQLVQSGAEVKKPGESLKISCKGSGYSFTSYWIGWVRQMPGKGLEWMGVIDPGGSYTIYSPSFQGQVTISADKSISTAYLQWSSLKASDTAMYYCARYGRYGTYFDYWGQGTLVTVSS VL: QSVLTQPPSVSGAPGQRVTISCSGSSSNIGVLYVNWYQQLPGTAPKLLIYSNDNRPSGVPDRFSGSKSGTSASLAITGLQAEDEADYYCQSWDSSSNYVFGGGTKLTVLG	binds	binds	0.0303	0.00038	1.26e+07	0.079	0.000535	6.78e+06	0.0396	0.000428	1.08e+07										
ABGDF15-F (antibody, human IgG1, lambda, V domains shown, captured through anti-human Fc in the Biacore assay) VH: EVQLVQSGAEVKKPGESLKISCKGSGYSFTSYWIGWVRQMPGKGLEWMGVIDPSGSYTIYSPSFQGQVTISADKSISTAYLQWSSLKASDTAMYYCARYGRYGTYFDYWGQGTLVTVSS VL: QSVLTQPPSVSGAPGQRVTISCSGSSSNIGVLYVNWYQQLPGTAPKLLIYSNDNRPSGVPDRFSGSKSGTSASLAITGLQAEDEADYYCQSWDSSSNYVFGGGTKLTVLG	binds	binds	0.035	0.00044	1.26e+07	0.0964	0.000584	6.05e+06	0.0485	0.000538	1.11e+07	no binding	binds	binds	binds	0.037	0.0115	0.00048	4.19e+07	0.0368	binding result [6]: no binding; koff [13]: 0.000696 s⁻¹; kon [13]: 1.89e+07 M⁻¹ s⁻¹; binding result [14]: binds
ABGDF15-B (antibody, human IgG1, lambda, V domains shown, captured through anti-human Fc in the Biacore assay) VH: QVQLVQSGAEVKKPGSSVKVSCKASGGTFRSYAVSWVRQAPGQGLEWMGGIIPIFGTANYAQKFQGRVTITADESTSTAYMELSSLRSEDTAVYYCARGPIIMGYQFGLFDHWGQGTLVTVSS VL: SYELTQPLSVSVALGQTARITCSGDNIGSHIVSWYQQKPGQAPVLVIYDKSNRPSGIPERFSGSNSGNTATLTISRAQAGDEADYYCQTWDSIGSVVFGGGTKLTVLG	binds	binds	0.0836	0.000461	5.52e+06	0.237	0.000626	2.64e+06	0.097	0.00052	5.36e+06	no binding	binds	binds	binds	0.115	0.0614	0.00054	8.8e+06	0.115	binding result [15]: no binding; koff [13]: 0.000389 s⁻¹; kon [13]: 3.38e+06 M⁻¹ s⁻¹; binding result [16]: binds
ABGDF15-C (antibody, human IgG1, lambda, V domains shown, captured through anti-human Fc in the Biacore assay) VH: QVQLVQSGAEVKKPGSSVKVSCKASGGTFRSYAVSWVRQAPGQGLEWMGGIIPIFGTANYAQKFQGRVTITADESTSTAYMELSSLRSEDTAVYYCARGPIIMGYQFGLFDHWGQGTLVTVSS VL: SYELTQPPSVSVSPGQTASITCSGDNIGSHIVSWYQQKPGQSPVLVIYDKSNRPSGIPERFSGSNSGNTATLTISGTQAMDEADYYCQTWDSIGSVVFGGGTKLTVLG	binds	binds	0.065	0.000322	4.96e+06	0.116	0.000505	4.37e+06	0.0618	0.000483	7.81e+06	no binding	binds	binds	binds	0.066	0.0422	0.000468	1.11e+07	0.0656	binding result [15]: no binding; koff [13]: 0.000388 s⁻¹; kon [13]: 5.92e+06 M⁻¹ s⁻¹; binding result [16]: binds
